Experimental data: the supplement of paper PMC9732359
± gives the uncertainty stated by the source.

Test: protein stability index of a GFP-peptide fusion (yeast GPS) (PSI 1-4); higher = more stable; sorted into four equal gates, so the index is relative within each strain
Summary of the method: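 For each peptide, the protein stability index sums the read frequency in every gate after multiplying it by the gate number. Read frequencies came from plasmids that were PCR-amplified from each gate and Illumina-sequenced, with reads assigned to strains by barcodes. The gates were four equal bins of GFP/Cherry fluorescence ratio applied to mid-log yeast in leucine-free medium carrying a pooled library of tiled 17-residue yeast protein peptides fused downstream of GFP on a Cherry-expressing plasmid.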

Row | Sequence | protein stability index (doa10∆) | protein stability index (pdr5∆) | protein stability index (san1∆) | protein stability index (ubr1∆)
1 | PVPSDSTRKKGGRRGRR [RPS14B] | 3.22 ± 0.092 | 3.45 ± 0.074 | 3.31 ± 0.069 | 3.27 ± 0.071
2 | NAASGSNSNVTNPSSIF [YOR098C/NUP1] | 2.83 ± 0.049 | 2.74 ± 0.047 | 2.3 ± 0.049 | 2.73 ± 0.049
3 | SLLDKPDEAIEKVFNAY [FAS1] | 3.15 ± 0.085 | 3.34 ± 0.099 | 3.2 ± 0.066 | 3.29 ± 0.078
4 | DEIYIPINGNEAESQWY [CSI1] | 2.63 ± 0.065 | 3.13 ± 0.06 | 3.11 ± 0.07 | 3.31 ± 0.064
5 | LNSFAFELCSLGDKELW [YJR042W/NUP85] | 1.76 ± 0.22 | 1.32 ± 0.12 |  | 1.34 ± 0.092
6 | RVVMMKYDRKVPSPTGE [RPO21] | 2.69 ± 0.11 | 3.11 ± 0.069 | 2.69 ± 0.079 | 2.89 ± 0.043
7 | LKYLSVEEVIKLVRDSF [PRE7] | 2.71 ± 0.13 | 3.27 ± 0.11 | 2.72 ± 0.12 | 3.08 ± 0.078
8 | NAYASFLQRQGKLEVPG [RPS19A] |  | 3.24 ± 0.19 | 3.21 ± 0.12 | 3.2 ± 0.094
9 | SNEDVMMTGAEQDPYSN [RPB3] | 3.09 ± 0.092 | 3.09 ± 0.079 | 3.19 ± 0.085 | 3.12 ± 0.073
10 | GFDIQKSCEPVSISTSV [SIR4] | 1.36 ± 0.091 | 1.73 ± 0.13 | 1.51 ± 0.27 | 1.56 ± 0.07
11 | HECRLRDMTYSAPIYVD [RET1] | 2.04 ± 0.087 | 1.67 ± 0.099 | 2.01 ± 0.21 | 1.91 ± 0.061
12 | PLLPIVEELMKKRRGSR [SNU114] | 2.4 ± 0.11 | 2.79 ± 0.12 | 2.87 ± 0.074 | 2.83 ± 0.13
13 | LVSLLDENDSKKNNAAS [YAR002W/NUP60] | 3 ± 0.07 | 2.92 ± 0.071 | 2.86 ± 0.092 | 3.08 ± 0.056
14 | AALDITNVQRIAAYIRR [SMC1] | 3.08 ± 0.16 | 3.07 ± 0.17 | 3.24 ± 0.13 | 3.09 ± 0.091
15 | SGCDSTKPSLRKASCIW [ECM29] | 2.86 ± 0.082 | 3.11 ± 0.075 | 2.63 ± 0.076 | 2.98 ± 0.066
16 | TPVSHNDDLYGKVTDVR [RPL1A] | 3.04 ± 0.091 | 3.04 ± 0.096 | 2.81 ± 0.067 | 3.12 ± 0.084
17 | TPLKARQREMAEEQTKL [YLR018C/POM34] | 3.33 ± 0.08 | 3.36 ± 0.093 | 3.31 ± 0.053 | 3.41 ± 0.056
18 | DLTGSEPIKEIIDNWEK [FAS1] |  | 2.79 ± 0.15 |  | 3.07 ± 0.16
19 | KIWSVKDGSNPRTLIGH [RPN14] | 3.12 ± 0.11 | 3.01 ± 0.12 | 2.95 ± 0.14 | 2.96 ± 0.12
20 | RSQDVRSTDRDRVKVIE [CSL4] | 3.01 ± 0.16 |  | 3.27 ± 0.12 | 2.97 ± 0.079
21 | SRGESDDSLNRLAQNDG [RPS21A] | 2.72 ± 0.19 | 2.9 ± 0.14 |  | 
22 | TTTRIQSQQAQPSDVMF [MED2] | 2.91 ± 0.061 | 2.79 ± 0.057 | 3 ± 0.063 | 2.87 ± 0.043
23 | HKVTQKKDIKIGTNDLF [SIR4] | 2.63 ± 0.12 | 2.61 ± 0.11 | 2.7 ± 0.072 | 2.27 ± 0.13
24 | KGIDSVVRRRFRGNISQ [RPL32] | 2.82 ± 0.14 | 2.94 ± 0.26 |  | 2.89 ± 0.12
25 | VLIAQERSAGNIVQVFK [RPB2] | 2.85 ± 0.13 | 3.39 ± 0.23 | 2.97 ± 0.087 | 3.11 ± 0.064
26 | DRKSIMPLKILLATKQH [CSN12] | 1.9 ± 0.15 | 1.19 ± 0.055 | 1.53 ± 0.11 | 1.42 ± 0.058
27 | ISSEKLLTLTNAANVPV [RPP1A] | 2.95 ± 0.091 | 2.9 ± 0.1 | 2.93 ± 0.065 | 3 ± 0.082

Row | Sequence | protein stability index (doa10∆) | protein stability index (pdr5∆) | protein stability index (san1∆) | protein stability index (ubr1∆)
28 | TSYKKWSFDLPEMSNLY [PRP8] | 2.6 ± 0.055 | 2.52 ± 0.05 | 2.26 ± 0.058 | 2.13 ± 0.044
29 | VNLPGGILRRKSESDEL [RRP4] | 3.31 ± 0.15 | 3.29 ± 0.15 | 2.88 ± 0.1 | 3.29 ± 0.14
30 | KTASLGNSKDDLLDMIQ [ISW2] | 1.62 ± 0.066 | 2.22 ± 0.13 | 3.36 ± 0.059 | 1.94 ± 0.059
31 | VREHYLRSDIPCLSRSC [DIS3] | 2.6 ± 0.051 | 2.72 ± 0.051 | 2.59 ± 0.051 | 2.44 ± 0.033
32 | YDVLHDVFTINPHQKDQ [YML103C/NUP188] |  | 2.15 ± 0.098 | 2.12 ± 0.13 | 2.61 ± 0.25
33 | HRLSILSHYAKIRPWRT [RPO31] | 2.81 ± 0.068 | 2.77 ± 0.066 | 2.85 ± 0.087 | 2.84 ± 0.052
34 | KTSCVVEKRIGKIVSQR [RGR1] | 2.76 ± 0.061 | 2.77 ± 0.048 | 3.12 ± 0.045 | 2.85 ± 0.036
35 | NTPLVGAAFKVISNLVP [YJL039C/NUP192] | 1.96 ± 0.081 | 2.08 ± 0.095 | 2.73 ± 0.16 | 2.47 ± 0.1
36 | GILDEIMFNHARIIRSE [RGR1] | 2.75 ± 0.061 | 2.98 ± 0.071 | 3.08 ± 0.069 | 3.07 ± 0.032
37 | LHNFESVAPTKQREIVK [NUT1] | 2.71 ± 0.084 | 2.55 ± 0.065 | 2.7 ± 0.053 | 2.6 ± 0.044
38 | LIPFIVKQVLLSVEIGV [NUT1] | 1.57 ± 0.031 | 1.6 ± 0.031 | 1.56 ± 0.059 | 1.74 ± 0.036
39 | KTWLRNQEDEKNLQRES [RTT102] |  |  |  | 3.23 ± 0.19
40 | LPILPIQRLRLLREKQR [YOR098C/NUP1] | 2.09 ± 0.086 | 1.55 ± 0.062 | 1.17 ± 0.25 | 2.02 ± 0.097
41 | TAILQRQLQYETLGDIL [ECM29] | 2.62 ± 0.086 | 3.31 ± 0.12 | 2.73 ± 0.098 | 3.02 ± 0.097
42 | LSKMENVNLDDYPDDSG [NAS6] | 2.75 ± 0.11 | 3.02 ± 0.11 | 2.83 ± 0.088 | 3.05 ± 0.091
43 | ALRALARSGLRIGRIED [RPS14A] |  | 2.12 ± 0.096 | 2.33 ± 0.1 | 2.01 ± 0.071
44 | FPRDGKAPEAEQVLSAA [RPL13B] | 3.3 ± 0.093 | 2.9 ± 0.086 | 2.9 ± 0.069 | 3 ± 0.045
45 | FNKSAELSRIENEVENI [YCS4] | 3.51 ± 0.17 | 3.4 ± 0.19 | 3.27 ± 0.06 | 3.39 ± 0.17
46 | TNIRRIIQDNISPRLVV [RRP46] | 1.58 ± 0.037 | 1.69 ± 0.041 | 1.75 ± 0.07 | 1.82 ± 0.03
47 | LILGLNTSIAQFDIQSP [YML103C/NUP188] | 1.94 ± 0.044 | 1.81 ± 0.045 | 2.29 ± 0.071 | 2.6 ± 0.044
48 | KTQFSWQYYYYTLTEEG [RPS10A] | 2.06 ± 0.065 | 2.33 ± 0.052 | 2.59 ± 0.054 | 2.35 ± 0.058
49 | TFDLTPEDAQLLLAANT [RPS0A] | 2.28 ± 0.054 | 1.88 ± 0.049 | 2.31 ± 0.088 | 2.45 ± 0.053
50 | HYVSTSKISQMAQNKTH [YLR018C/POM34] | 1.56 ± 0.032 | 2.02 ± 0.035 | 1.78 ± 0.058 | 1.87 ± 0.027
51 | STGCVVGLSQPDAKIQV [YMR129W/POM152] | 2.29 ± 0.15 | 2.47 ± 0.21 | 2.47 ± 0.063 | 2.42 ± 0.091
52 | EVIFTDVLKSQANTEPE [MCD1] | 3.07 ± 0.21 | 3.08 ± 0.12 | 2.97 ± 0.088 | 2.95 ± 0.12
53 | IYDFHKMENLMRLIKRV [YJL039C/NUP192] | 2.58 ± 0.097 | 2.67 ± 0.079 | 2.3 ± 0.062 | 2.57 ± 0.073
